Results reported in US20110150894A1.

Target: activated β1 integrin on bovine capillary endothelial (CE) cells (bovine) (UniProt P53712)
Assay: cell-based or functional assay

Sequence of activated β1 integrin on bovine capillary endothelial (CE) cells (bovine) (P53712 21-798): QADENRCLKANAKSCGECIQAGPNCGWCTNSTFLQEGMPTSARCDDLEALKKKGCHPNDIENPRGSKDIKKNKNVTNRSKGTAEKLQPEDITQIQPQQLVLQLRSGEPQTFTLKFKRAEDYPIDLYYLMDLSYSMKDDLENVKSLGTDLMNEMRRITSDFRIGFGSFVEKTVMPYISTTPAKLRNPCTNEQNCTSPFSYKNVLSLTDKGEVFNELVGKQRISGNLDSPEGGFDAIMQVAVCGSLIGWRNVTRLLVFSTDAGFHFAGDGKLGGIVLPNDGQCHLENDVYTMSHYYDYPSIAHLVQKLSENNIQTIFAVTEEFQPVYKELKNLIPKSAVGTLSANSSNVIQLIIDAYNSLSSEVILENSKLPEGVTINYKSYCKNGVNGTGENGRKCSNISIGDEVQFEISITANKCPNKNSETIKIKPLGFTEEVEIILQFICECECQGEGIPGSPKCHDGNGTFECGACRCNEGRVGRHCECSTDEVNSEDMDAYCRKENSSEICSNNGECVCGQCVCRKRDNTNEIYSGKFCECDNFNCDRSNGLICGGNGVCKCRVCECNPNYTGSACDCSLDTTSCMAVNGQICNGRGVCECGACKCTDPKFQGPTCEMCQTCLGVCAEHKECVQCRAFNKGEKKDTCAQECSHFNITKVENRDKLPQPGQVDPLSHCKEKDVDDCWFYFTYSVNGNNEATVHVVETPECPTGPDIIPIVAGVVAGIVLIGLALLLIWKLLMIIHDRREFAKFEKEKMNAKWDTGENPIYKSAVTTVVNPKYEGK

Question: With “function-blocking anti-β1 integrin (P5D2) antibody” as the substance, how does the decrease in strain-induced cell realignment read?
Answer: The decrease in strain-induced cell realignment was 70%.
